Data set [1] concerns MMP-2/9. The conditions noted are these: Koivunen et al., 1999; cited from earlier work.
For data set [2] the following is noted: in vivo; Kuhnast et al., 2004; Sprague et al., 2006; cited from earlier work.
The format of data set [3] is physicochemical. As for the experimental part:
The lipophilicity of ^68Ga-M2 was assessed by determination of the water-octanol partition coefficient. 1-Octanol (1 mL) was added to a solution of approximately 25 μCi of ^68Ga-M2 in water (1 mL) and the layers were vigorously mixed for 5 min at room temperature. The tubes were centrifuged at 14,000 rpm for 2-3 min. Three samples of 100 μL of each layer were taken in pre-weighed vials, re-weighed, and counted in a […] (Wizard-2, Perkin Elmer). The partition coefficient was determined by calculating the ratio of counts per minute (cpm) in weight (g) of octanol/cpm in weight (g) of water and expressed as log P. At least three independent experiments were performed in triplicate to give the log P as the mean value±standard deviation (SD).

Data set [4] can be described thus: radiochemical stability of ^68Ga-M2 in PBS or DTPA challenge (radio-HPLC). Type of data set: physicochemical. The conditions noted are these: room temperature, 3 h incubation. As for the experimental part:
(§1) The chemical, radiochemical and optical stability of radioactive and non-radioactive M2 were examined using a series of in vitro stability studies. M2 was incubated in PBS and water at room temperature and 4° C. for 14 days, followed by HPLC analysis of peptide and fluorescent stability. To assess radiochemical stability, ^68Ga-M2 was added to a solution of PBS or DTPA (500-fold excess), kept at room temperature for 1, 2 and 3 h, and analyzed by radio-HPLC. To evaluate serum stability, 150 μl of ^68Ga-M2 was added to 50% mouse serum and incubated at 37° C. An 80 μl aliquot was taken at each of the above-mentioned time points and added to 160 μl ice-cold acetonitrile. The samples were centrifuged at 14,000 rpm for 5 min and the supernatant was collected, filtered and analyzed by radio-HPLC.

Data set [5] can be described thus: in vitro. The conditions noted are these: mouse, serum. It is filed as in vitro ADME. As for the experimental part:
as §1

Data set [6] is described as follows: characterization of fluorescent properties. It is filed as physicochemical. As for the experimental part: Fluorescence intensity of the fluorophores was determined using the Fluorolog Tau-3 Spectrofluorometer (Horiba Jobin Yvon, Edison, N.J.) with excitation from a xenon arc lamp and absorbance was recorded using the DU-800 Spectrophotometer (Beckman Coulter, Brea Calif.). Fluorescence excitation and emission spectra were obtained at wavelengths of 785 and 830 nm respectively, with an integration time of 0.3 seconds for 1 μM solutions of IRDye 800CW, M2 and ^68Ga-M2 (n=4). Fluorescence measurements for IRDye 800CW and M2 were performed in aqueous solution under ambient conditions, whereas ^68Ga-M2 was prepared as previously described in NaOAc (pH 4) to provide an accurate representation of the ^68Ga-labeling scheme. Extinction coefficients were determined from the slope of absorbance at 785 nm as a function of the concentration of serial dilutions of each agent. Fluorescence quantum yield was determined by the comparative method of Williams et al. (Williams et al., 1983) using the quantum yield of ICGO (Φ=0.016) at 785/830 nm as a standard.

Data set [7] deals with T1, MMP-9 (Mus musculus, UniProt P41245). Nature of the data set: NIRF imaging of ^68Ga-M2 in murine model of BMP-2 induced HO. It is filed as in vivo. Also on record: injected intramuscularly into each hind limb quadriceps muscle of nonobese diabetic/severely compromised immunodeficient (NOD/SCID) mice; from tissue; host or cells: hind limb muscle of living NOD/SCID mice injected with AdBMP2- or Adempty-transduced human fibroblasts. The conditions noted are these: day 4 after implantation, 18 hr after i.v. administration. As for the experimental part: (§2) A murine model of BMP-2 induced HO was used as previously described (Rodenberg et al., 2010). […] Control transduced cells were injected into the contralateral limb.
Based on the findings from the ex vivo analysis, mice were imaged on day 4 post-implantation with NIRF imaging to assess localization and in vivo fluorescence of M2 following ^68Ga-labeling. […] NIR fluorescence images were acquired 18 hr after intravenous administration of ^68Ga-M2 using a custom-built fluorescence imaging systems previously described Houston et al., 2005). Briefly, a field of view was illuminated with 785 nm of light from a laser diode, outfitted with a convex lens and diffuser to create a uniform excitation field. The fluorescence was collected through holographic and interference filters placed before a Nikon camera lens. The images were finally captured by an electron-multiplying charge-coupled device camera (PhotonMax 512; Princeton Instruments, Princeton, N.J.) with 200 to 400 milliseconds of integration time. For acquisition of white-light images, the optical filters were removed, and a low-power lamp illuminated the subject. Image acquisition was accomplished by V++ software (Auckland, New Zealand).

Data set [8] has as its target T1, MMP-9. More on the design: injected intramuscularly into each hind limb quadriceps muscle of nonobese diabetic/severely compromised immunodeficient (NOD/SCID) mice; from tissue; host or cells: hind limb muscle of living NOD/SCID mice injected with AdBMP2- or Adempty-transduced human fibroblasts. Conditions: in vivo, iv. As for the experimental part: as §2
The anesthetized mice were injected intravenously with ^68Ga-M2 (200 μCi, 6 nmol) and μPET/CT images were acquired 1 h post-injection. To visualize the formation of ectopic bone, CT imaging was performed on days 4 and 11 post-implantation

The mark [9] stands for this setting: 1 μM solutions, IRDye 800CW and M2 aqueous, ^68Ga-M2 in NaOAc pH 4.

No end group written: not given here.

T1 sequence (P41245 108-730): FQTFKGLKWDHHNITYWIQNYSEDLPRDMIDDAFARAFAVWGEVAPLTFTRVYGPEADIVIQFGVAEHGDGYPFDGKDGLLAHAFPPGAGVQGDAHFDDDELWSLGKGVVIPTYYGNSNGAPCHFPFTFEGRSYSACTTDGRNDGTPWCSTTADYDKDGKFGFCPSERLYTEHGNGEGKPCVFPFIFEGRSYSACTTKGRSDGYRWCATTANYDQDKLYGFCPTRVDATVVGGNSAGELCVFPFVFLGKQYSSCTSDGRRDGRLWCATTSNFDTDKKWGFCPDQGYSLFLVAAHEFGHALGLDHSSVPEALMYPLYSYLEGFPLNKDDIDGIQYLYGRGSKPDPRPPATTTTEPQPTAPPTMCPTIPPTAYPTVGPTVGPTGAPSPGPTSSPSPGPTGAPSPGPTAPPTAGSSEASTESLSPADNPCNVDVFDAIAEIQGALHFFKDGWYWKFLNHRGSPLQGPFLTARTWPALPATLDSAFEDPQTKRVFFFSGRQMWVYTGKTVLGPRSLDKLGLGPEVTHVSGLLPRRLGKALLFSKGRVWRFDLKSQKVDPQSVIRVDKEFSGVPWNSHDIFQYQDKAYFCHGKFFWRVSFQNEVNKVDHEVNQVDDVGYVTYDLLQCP

“c(CTTHWGFTLC) (also: cyclic, c(...), ring type and places not given here)”: the “inhibitory activity against MMP-2/9” value in data set [1] is listed as “potent inhibitory activity”. The “susceptibility to non-specific degradation” value in data set [2] was “highly susceptible to non-specific degradation”.
In the case of `CC(C)C[C@@H]1NC(=O)[C@H]([C@@H](C)O)NC(=O)[C@H](Cc2ccccc2)NC(=O)CNC(=O)[C@H](Cc2c[nH]c3ccccc23)NC(=O)[C@H](Cc2c[nH]cn2)NC(=O)[C@H](C)NC(=O)[C@@H](NC(=O)[C@H](CCCCNC(=O)CCCCC[N+]2=C(C=CC3=C(Oc4ccc(S(=O)(=O)O)cc4)C(=CC=C4N(CCCCS(=O)(=O)O)c5ccc(S(=O)(=O)O)cc5C4(C)C)CCC3)C(C)(C)c3cc(S(=O)(=O)[O-])ccc32)NC(=O)CN2CCN(CC(=O)O)CCN(CC(=O)O)CCN(CC(=O)O)CC2)CCCCNC(=O)C[C@@H](C(=O)O)NC1=O` (single isomer, unassigned) [^68Ga-M2, metal not drawn], the logP in data set [3] was -2.09 ± 0.02. The radiochemical purity in data set [4] (DTPA (500-fold excess)) and in data set [4] (PBS) was over 95% in each case. The share remaining at 3 h in data set [5] is over 95%. The Emission maximum in data set [6] (setting [9]) is on record as 830 nm. In addition, in data set [6] (setting [9]), the Excitation wavelength turned out to be 785 nm. Further, in data set [6] (785/830 nm, relative to ICG (Φ=0.016)), the Quantum yield was 0.031. Moreover, the Extinction coefficient in data set [6] (absorbance at 785 nm, serial dilutions, mean ± SD (n=4)) is 108,069±7,918 M^−1cm^−1. The absorbance maximum in data set [6] (optical spectrum) turned out to be 785 nm. In addition, in data set [7], the “localization of agent by NIR fluorescence” value is “observed in the tissue region with BMP-2 producing cells”. In addition, the clearance from circulation entry in data set [8] is listed as “rapidly cleared from circulation via the kidneys”.

A word on the logP: it is the decadic logarithm of the partition coefficient of the neutral form, usually between octanol and water. As a reminder, the fraction remaining is what is left of the initial amount, in per cent. Read a high fraction remaining as less turnover.

These data come from patent US20140178293A1, “METHODS FOR IMAGING BONE PRECURSOR CELLS USING DUAL-LABELED IMAGING AGENTS TO DETECT MMP-9 POSITIVE CELLS” (BAYLOR COLLEGE OF MEDICINE, priority 2011, published 2014).
